T1: EsCas13d, nuclease-dead (Eubacterium siraeum, UniProt B0MS50, R295A;H300A;R849A;H854A)
T1 sequence: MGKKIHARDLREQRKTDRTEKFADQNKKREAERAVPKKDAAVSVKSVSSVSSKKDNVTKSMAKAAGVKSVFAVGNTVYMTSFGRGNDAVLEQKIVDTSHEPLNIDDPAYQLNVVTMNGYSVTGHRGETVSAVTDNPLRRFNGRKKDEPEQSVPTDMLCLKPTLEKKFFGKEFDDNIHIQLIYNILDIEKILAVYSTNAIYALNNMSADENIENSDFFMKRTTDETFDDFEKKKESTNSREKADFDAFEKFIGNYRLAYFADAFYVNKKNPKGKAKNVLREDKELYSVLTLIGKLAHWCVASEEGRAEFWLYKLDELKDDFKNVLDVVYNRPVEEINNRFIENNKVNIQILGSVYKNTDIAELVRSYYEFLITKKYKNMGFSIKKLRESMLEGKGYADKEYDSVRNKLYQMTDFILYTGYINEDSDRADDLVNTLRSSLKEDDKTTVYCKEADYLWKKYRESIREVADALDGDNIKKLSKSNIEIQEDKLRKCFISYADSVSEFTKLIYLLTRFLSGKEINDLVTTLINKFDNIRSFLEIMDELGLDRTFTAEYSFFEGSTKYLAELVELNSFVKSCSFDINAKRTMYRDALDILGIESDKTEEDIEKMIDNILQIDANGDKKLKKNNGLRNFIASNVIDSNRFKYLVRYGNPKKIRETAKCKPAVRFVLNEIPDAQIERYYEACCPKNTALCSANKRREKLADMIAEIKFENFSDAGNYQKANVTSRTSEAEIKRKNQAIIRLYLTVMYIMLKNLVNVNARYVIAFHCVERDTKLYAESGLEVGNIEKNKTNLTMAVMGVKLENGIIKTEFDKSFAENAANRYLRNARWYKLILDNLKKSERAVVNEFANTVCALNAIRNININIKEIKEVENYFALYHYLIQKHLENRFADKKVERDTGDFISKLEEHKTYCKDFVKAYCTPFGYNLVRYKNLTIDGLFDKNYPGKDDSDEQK

B1: target 1 MT 5'PFS UUG 3'PFS CGG (mixed)
RNA 1: CACCCGUGCAAAAAUGCAGGGGUCUAAAACUGAGCGGAUAACCUCUCUAUGG
RNA 2: GGGAAUGGAUCCACAUCUACGAAUUCUUGCCAUAGAGAGGUUAUCCGCUCACGGAGAUCGGAAGAGCACACGU
B2: target 1 MT 5'PFS CUU 3'PFS UAA (mixed)
RNA 1: CACCCGUGCAAAAAUGCAGGGGUCUAAAACUGAGCGGAUAACCUCUCUAUGG
RNA 2: GGGAAUGGAUCCACAUCUACGAAUUCCUUCCAUAGAGAGGUUAUCCGCUCAUAAAGAUCGGAAGAGCACACGU
B3: target 1 MT 5'PFS CUU 3'PFS UAG (mixed)
RNA 1: CACCCGUGCAAAAAUGCAGGGGUCUAAAACUGAGCGGAUAACCUCUCUAUGG
RNA 2: GGGAAUGGAUCCACAUCUACGAAUUCCUUCCAUAGAGAGGUUAUCCGCUCAUAGAGAUCGGAAGAGCACACGU
B4: target 1 MT 5'PFS AGA 3'PFS UAC (mixed)
RNA 1: CACCCGUGCAAAAAUGCAGGGGUCUAAAACUGAGCGGAUAACCUCUCUAUGG
RNA 2: GGGAAUGGAUCCACAUCUACGAAUUCAGACCAUAGAGAGGUUAUCCGCUCAUACAGAUCGGAAGAGCACACGU
B5: target 1 insC 3' of 9,insA 3' of 5 (mixed)
RNA 1: CACCCGUGCAAAAAUGCAGGGGUCUAAAACUGAGCGGAUAACCUCUCUAUGG
RNA 2: GGGAAUGGAUCCACAUCUACGAAUUCGUACCAUAGAGAGGUUACUCCGACUCACCGAGAUCGGAAGAGCACACGU
B6: target 1 MT 5'PFS AGA 3'PFS UAA (mixed)
RNA 1: CACCCGUGCAAAAAUGCAGGGGUCUAAAACUGAGCGGAUAACCUCUCUAUGG
RNA 2: GGGAAUGGAUCCACAUCUACGAAUUCAGACCAUAGAGAGGUUAUCCGCUCAUAAAGAUCGGAAGAGCACACGU
B7: target 1 MT 5'PFS AGA 3'PFS UAG (mixed)
RNA 1: CACCCGUGCAAAAAUGCAGGGGUCUAAAACUGAGCGGAUAACCUCUCUAUGG
RNA 2: GGGAAUGGAUCCACAUCUACGAAUUCAGACCAUAGAGAGGUUAUCCGCUCAUAGAGAUCGGAAGAGCACACGU
B8: target 1 MT 5'PFS GUG 3'PFS GAU (mixed)
RNA 1: CACCCGUGCAAAAAUGCAGGGGUCUAAAACUGAGCGGAUAACCUCUCUAUGG
RNA 2: GGGAAUGGAUCCACAUCUACGAAUUCGUGCCAUAGAGAGGUUAUCCGCUCAGAUAGAUCGGAAGAGCACACGU
B9: target 1 MT 5'PFS UGG 3'PFS CAU (mixed)
RNA 1: CACCCGUGCAAAAAUGCAGGGGUCUAAAACUGAGCGGAUAACCUCUCUAUGG
RNA 2: GGGAAUGGAUCCACAUCUACGAAUUCUGGCCAUAGAGAGGUUAUCCGCUCACAUAGAUCGGAAGAGCACACGU
B10: target 1 MT 5'PFS GUG 3'PFS GAC (mixed)
RNA 1: CACCCGUGCAAAAAUGCAGGGGUCUAAAACUGAGCGGAUAACCUCUCUAUGG
RNA 2: GGGAAUGGAUCCACAUCUACGAAUUCGUGCCAUAGAGAGGUUAUCCGCUCAGACAGAUCGGAAGAGCACACGU
B11: target 1 MT 5'PFS UAC 3'PFS UCG (mixed)
RNA 1: CACCCGUGCAAAAAUGCAGGGGUCUAAAACUGAGCGGAUAACCUCUCUAUGG
RNA 2: GGGAAUGGAUCCACAUCUACGAAUUCUACCCAUAGAGAGGUUAUCCGCUCAUCGAGAUCGGAAGAGCACACGU
B12: target 1 MT 5'PFS GUG 3'PFS GAA (mixed)
RNA 1: CACCCGUGCAAAAAUGCAGGGGUCUAAAACUGAGCGGAUAACCUCUCUAUGG
RNA 2: GGGAAUGGAUCCACAUCUACGAAUUCGUGCCAUAGAGAGGUUAUCCGCUCAGAAAGAUCGGAAGAGCACACGU
B13: target 1 MT 5'PFS GUG 3'PFS GAG (mixed)
RNA 1: CACCCGUGCAAAAAUGCAGGGGUCUAAAACUGAGCGGAUAACCUCUCUAUGG
RNA 2: GGGAAUGGAUCCACAUCUACGAAUUCGUGCCAUAGAGAGGUUAUCCGCUCAGAGAGAUCGGAAGAGCACACGU
B14: target 1 MT 5'PFS UAC 3'PFS UCC (mixed)
RNA 1: CACCCGUGCAAAAAUGCAGGGGUCUAAAACUGAGCGGAUAACCUCUCUAUGG
RNA 2: GGGAAUGGAUCCACAUCUACGAAUUCUACCCAUAGAGAGGUUAUCCGCUCAUCCAGAUCGGAAGAGCACACGU
B15: target 1 MT 5'PFS UCG 3'PFS UGC (mixed)
RNA 1: CACCCGUGCAAAAAUGCAGGGGUCUAAAACUGAGCGGAUAACCUCUCUAUGG
RNA 2: GGGAAUGGAUCCACAUCUACGAAUUCUCGCCAUAGAGAGGUUAUCCGCUCAUGCAGAUCGGAAGAGCACACGU
B16: target 1 G17C (mixed)
RNA 1: CACCCGUGCAAAAAUGCAGGGGUCUAAAACUGAGCGGAUAACCUCUCUAUGG
RNA 2: GGGAAUGGAUCCACAUCUACGAAUUCGUACCAUACAGAGGUUAUCCGCUCACCGAGAUCGGAAGAGCACACGU
B17: target 1 G5U,A14G (mixed)
RNA 1: CACCCGUGCAAAAAUGCAGGGGUCUAAAACUGAGCGGAUAACCUCUCUAUGG
RNA 2: GGGAAUGGAUCCACAUCUACGAAUUCGUACCAUAGAGGGGUUAUCCUCUCACCGAGAUCGGAAGAGCACACGU
B18: target 1 MT 5'PFS CGC 3'PFS UCG (mixed)
RNA 1: CACCCGUGCAAAAAUGCAGGGGUCUAAAACUGAGCGGAUAACCUCUCUAUGG
RNA 2: GGGAAUGGAUCCACAUCUACGAAUUCCGCCCAUAGAGAGGUUAUCCGCUCAUCGAGAUCGGAAGAGCACACGU
B19: target 1 MT 5'PFS GGG 3'PFS UGA (mixed)
RNA 1: CACCCGUGCAAAAAUGCAGGGGUCUAAAACUGAGCGGAUAACCUCUCUAUGG
RNA 2: GGGAAUGGAUCCACAUCUACGAAUUCGGGCCAUAGAGAGGUUAUCCGCUCAUGAAGAUCGGAAGAGCACACGU
B20: target 1 MT 5'PFS GGG 3'PFS UGC (mixed)
RNA 1: CACCCGUGCAAAAAUGCAGGGGUCUAAAACUGAGCGGAUAACCUCUCUAUGG
RNA 2: GGGAAUGGAUCCACAUCUACGAAUUCGGGCCAUAGAGAGGUUAUCCGCUCAUGCAGAUCGGAAGAGCACACGU
B21: target 1 MT 5'PFS CCG 3'PFS ACU (mixed)
RNA 1: CACCCGUGCAAAAAUGCAGGGGUCUAAAACUGAGCGGAUAACCUCUCUAUGG
RNA 2: GGGAAUGGAUCCACAUCUACGAAUUCCCGCCAUAGAGAGGUUAUCCGCUCAACUAGAUCGGAAGAGCACACGU
B22: target 1 MT 5'PFS GAA 3'PFS CGA (mixed)
RNA 1: CACCCGUGCAAAAAUGCAGGGGUCUAAAACUGAGCGGAUAACCUCUCUAUGG
RNA 2: GGGAAUGGAUCCACAUCUACGAAUUCGAACCAUAGAGAGGUUAUCCGCUCACGAAGAUCGGAAGAGCACACGU
B23: target 1 MT 5'PFS GGU 3'PFS UUC (mixed)
RNA 1: CACCCGUGCAAAAAUGCAGGGGUCUAAAACUGAGCGGAUAACCUCUCUAUGG
RNA 2: GGGAAUGGAUCCACAUCUACGAAUUCGGUCCAUAGAGAGGUUAUCCGCUCAUUCAGAUCGGAAGAGCACACGU
B24: target 1 MT 5'PFS GGG 3'PFS UGU (mixed)
RNA 1: CACCCGUGCAAAAAUGCAGGGGUCUAAAACUGAGCGGAUAACCUCUCUAUGG
RNA 2: GGGAAUGGAUCCACAUCUACGAAUUCGGGCCAUAGAGAGGUUAUCCGCUCAUGUAGAUCGGAAGAGCACACGU
B25: target 1 MT 5'PFS GUG 3'PFS ACU (mixed)
RNA 1: CACCCGUGCAAAAAUGCAGGGGUCUAAAACUGAGCGGAUAACCUCUCUAUGG
RNA 2: GGGAAUGGAUCCACAUCUACGAAUUCGUGCCAUAGAGAGGUUAUCCGCUCAACUAGAUCGGAAGAGCACACGU
B26: target 1 MT 5'PFS GUG 3'PFS ACC (mixed)
RNA 1: CACCCGUGCAAAAAUGCAGGGGUCUAAAACUGAGCGGAUAACCUCUCUAUGG
RNA 2: GGGAAUGGAUCCACAUCUACGAAUUCGUGCCAUAGAGAGGUUAUCCGCUCAACCAGAUCGGAAGAGCACACGU
B27: target 1 MT 5'PFS GUG 3'PFS ACA (mixed)
RNA 1: CACCCGUGCAAAAAUGCAGGGGUCUAAAACUGAGCGGAUAACCUCUCUAUGG
RNA 2: GGGAAUGGAUCCACAUCUACGAAUUCGUGCCAUAGAGAGGUUAUCCGCUCAACAAGAUCGGAAGAGCACACGU
B28: target 1 insC 3' of 11,insG 3' of 9 (mixed)
RNA 1: CACCCGUGCAAAAAUGCAGGGGUCUAAAACUGAGCGGAUAACCUCUCUAUGG
RNA 2: GGGAAUGGAUCCACAUCUACGAAUUCGUACCAUAGAGAGGUCUAGUCCGCUCACCGAGAUCGGAAGAGCACACGU

target: T1, EsCas13d, nuclease-dead; experiment: crRNA (strand 1, pre-loaded); Mg2+; 40 mM Tris-HCl pH 7.5, 150 mM NaCl, 6 mM MgCl2, 1 mM DTT, 0.1% Tween-20, 0.2 mg/ml BSA; 25 C; 10 min per concentration, then washed; settings: tags: His6-TwinStrep-SUMO cleaved; N-terminal SNAP kept (SNAP-Surface 488); label: 3' end held by stalled T7 RNA polymerase

Going from B1 to B2, the Kd falls from ~97 nM to 35 ± 11.5 nM (2.8-fold). The second binds more tightly here.

Compared with B3, B4 is 2.2-fold lower in Kd: ~90 nM for the first, 40 ± 17 nM for the second.

Going from B5 to B6, the Kd rises from 5.89 ± 0.35 nM to 45 ± 20 nM (7.6-fold). The first binds more tightly here.

First: B7
Second: B8
The Kd of the first is 2.3-fold higher: 35.5 ± 14 nM for the first, 15.4 ± 1.95 nM for the second. The second binds more tightly here.

Compared with B9, B10 is 4.7-fold lower in Kd: 80 ± 32 nM for the first, 17.2 ± 2.9 nM for the second. The second binds more tightly here.

B11 and B12 are within error of each other in Kd: 21.3 ± 8.05 nM for the first, 12.9 ± 1.4 nM for the second.

B13 and B14 are within error of each other in Kd: 18.8 ± 2.25 nM for the first, 12.5 ± 5 nM for the second.

B15 and B16 are within 1.5-fold of each other in Kd: ~50 nM for the first, 40 ± 8 nM for the second.

B17 and B18 are within 1.5-fold of each other in Kd: 68 ± 7 nM for the first, ~76 nM for the second.

Going from B19 to B20, the Kd falls from 24.5 ± 4 nM to 12.8 ± 1.3 nM (1.9-fold). The second binds more tightly here.

Compared with B21, B22 is 17-fold higher in Kd: ~4.9 nM for the first, ~85 nM for the second. The first binds more tightly here.

B23 and B24 are within error of each other in Kd: 36 ± 6 nM for the first, 43 ± 7.5 nM for the second.

B25 and B26 are within error of each other in Kd: 11.5 ± 0.75 nM for the first, 12.4 ± 1.1 nM for the second.

B27 and B28 are within 1.5-fold of each other in Kd: 24.1 ± 2.35 nM for the first, 31.8 ± 2 nM for the second.

Source: article PMC10786891, “Massively parallel profiling of RNA-targeting CRISPR-Cas13d”
